Experimental data reported in article PMC7060403 (Journal of molecular biology, 2019).

B1: full-length rabies virus phosphoprotein (RavP-FL, residues 1-297) (natural protein)
chain: MSKIFVNPSAIRAGLADLEMAEETVDLINRNIEDNQAHLQGEPIEVDNLPEDMKRLHLDDEKSSNLGEMVRVGEGKYREDFQMDEGEDPNLLFQSYLDNVGVQIVRQMRSGERFLKIWSQTVEEIVSYVTVNFPNPPRRSSEDKSTQTTGRELKKETTSAFSQRESQPSKARMVAQVAPGPPALEWSATNEEDDLSVEAEIAHQIAESFSKKYKFPSRSSGIFLYNFEQLKMNLDDIVKEAKNVPGVTRLAHDGSKIPLRCVLGWVALANSKKFQLLVEADKLSKIMQDDLNRYTSC
B2: LC8 from Drosophila melanogaster (natural protein, UniProt Q24117 1-89, looked up)
chain: MSDRKAVIKNADMSEEMQQDAVDCATQALEKYNIEKDIAAYIKKEFDKKYNPTWHCIVGRNFGSYVTHETRHFIYFYLGQVAILLFKSG

Columns and labels:
SEC-MALS = biological target: the molecule itself; assay: SEC-MALS
[1] = biological target: T1, RavP-N (N-terminal region of the rabies virus phosphoprotein, residues 1-152) (rabies virus, UniProt P22363 1-152); assay: ITC
T1 sequence: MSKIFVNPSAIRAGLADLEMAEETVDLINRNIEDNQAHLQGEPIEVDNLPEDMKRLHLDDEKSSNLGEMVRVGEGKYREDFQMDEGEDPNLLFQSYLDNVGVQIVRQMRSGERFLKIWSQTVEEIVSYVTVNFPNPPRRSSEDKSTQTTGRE

[2] = biological target: B1; assay: ITC

| Binder | stoichiometry N (SEC-MALS) | Kd [1] [nM] | Kd [2] [nM] | stoichiometry N [2] |
| --- | --- | --- | --- | --- |
| B1 | 2 |  |  |  |
| B2 |  | 30 | 82 | 1 |
